Measurements published in patent US20060104978A1, “Methods and compositions for PDGF-C activation and inhibition” (LUDWIG INSTITUTE FOR CANCER RESEARCH, priority 2003, published 2006).

Tests used:
tPA = assay: Cotransfection assay in COS-1 cells: PDGF-CC forms and mutants coexpressed with tPA; type: cell-based, human; details: COS-1 cotransfection with tPA, immunoblot; cleavage site mutant made from mouse PDGF-C cDNA
Source text: The structural requirements for recognition of full-length PDGF-CC as a substrate for tPA were mapped by analysis of several mutated forms of PDGF-CC using the co-transfection assay. The mutants of PDGF-CC included a chimeric form of PDGF-C carrying the CUB domain from PDGF-D and the hinge region and growth factor domain of PDGF-C (mutant PDCUBPC), and several truncation mutants lacking the CUB domain and increasing parts of the hinge region (schematically illustratrated in FIG. 6A). All mutants were properly expressed in transfected COS-1 cells, formed disulfide-linked dimers (data not shown), and were efficiently secreted, except truncation mutant Δ190 that was expressed at a lower level in the conditioned medium (FIG. 6B).
A conserved site of four amino acids containing three basic amino-acid residues (amino-acid residues -R-K-S-R-) was previously identified as a potential site for proteolytic activation of latent PDGF-CC (Li et al, 2000). […]
To test the endogenous expression of PDGF-CC, subconfluent AG1523 cells and primary fibroblast cultures were cultured in serum-free DMEM overnight. […] In the case of the primary cultures, total protein concentration was measured and normalized (Bradford, 1976). […] PDGF-C and PDGF-D were detected by immunoblotting using affinity-purified polyclonal rabbit antibodies against PDGF-C (Li et al, 2000) and PDGF-D (Bergsten et al, 2001), respectively. […]

latent PDGF-CC = molecular target: T1, latent PDGF-CC (Homo sapiens, UniProt Q9NRA1); assay: Cotransfection assay in COS-1 cells: protease plus full-length PDGF-C; type: cell-based; details: α2-anti-plasmin 10 ng-1 μg added to the cotransfection medium for 24 hours
T1 construct: cotransfected with full-length PDGF-C (Li et al, 2000), full-length PDGF-D (Bergsten et al, 2001); expressed in transfected cells; host or cells: COS-1 cells
T1 sequence (Q9NRA1 23-345): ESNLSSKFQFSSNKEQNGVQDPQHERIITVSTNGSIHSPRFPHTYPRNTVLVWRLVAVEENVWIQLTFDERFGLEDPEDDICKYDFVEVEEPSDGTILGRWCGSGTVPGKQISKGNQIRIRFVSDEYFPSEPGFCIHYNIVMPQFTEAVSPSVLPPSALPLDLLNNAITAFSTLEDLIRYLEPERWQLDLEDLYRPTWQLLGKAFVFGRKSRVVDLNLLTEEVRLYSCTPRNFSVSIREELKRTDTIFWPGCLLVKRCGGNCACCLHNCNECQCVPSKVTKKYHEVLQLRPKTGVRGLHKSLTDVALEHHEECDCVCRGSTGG
Source text: A cotransfection assay was established to identify serine proteases able to cleave and activate latent PDGF-CC. Expression plasmids encoding the relevant enzymes and full-length PDGF-C were cotransfected into COS-1 cells, and aliquots of the conditioned media from the transfectants were subjected to SDS-PAGE and immunoblotting using antibodies to the growth factor domain of PDGF-C. […] As a specificity control, the ability of tPA and NT to use full-length PDGF-DD as the substrate in the cotransfection assay was analysed. […] One difference in the latter results, as compared with the results from the cotransfection assay, was that purified tPA generated a second intermediate species of 32 kDa using latent PDGF-CC as the substrate. It is possible that this intermediate is the result of digestion by plasmin contamination in the tPA preparation, since the size of the fragment is similar to that of plasmincleaved PDGF-CC previously reported (Li et al, 2000). […]
To test the endogenous expression of PDGF-CC, subconfluent AG1523 cells and primary fibroblast cultures were cultured in serum-free DMEM overnight. […] In the case of the primary cultures, total protein concentration was measured and normalized (Bradford, 1976). […]

Chain of tPA (P00750 36-562): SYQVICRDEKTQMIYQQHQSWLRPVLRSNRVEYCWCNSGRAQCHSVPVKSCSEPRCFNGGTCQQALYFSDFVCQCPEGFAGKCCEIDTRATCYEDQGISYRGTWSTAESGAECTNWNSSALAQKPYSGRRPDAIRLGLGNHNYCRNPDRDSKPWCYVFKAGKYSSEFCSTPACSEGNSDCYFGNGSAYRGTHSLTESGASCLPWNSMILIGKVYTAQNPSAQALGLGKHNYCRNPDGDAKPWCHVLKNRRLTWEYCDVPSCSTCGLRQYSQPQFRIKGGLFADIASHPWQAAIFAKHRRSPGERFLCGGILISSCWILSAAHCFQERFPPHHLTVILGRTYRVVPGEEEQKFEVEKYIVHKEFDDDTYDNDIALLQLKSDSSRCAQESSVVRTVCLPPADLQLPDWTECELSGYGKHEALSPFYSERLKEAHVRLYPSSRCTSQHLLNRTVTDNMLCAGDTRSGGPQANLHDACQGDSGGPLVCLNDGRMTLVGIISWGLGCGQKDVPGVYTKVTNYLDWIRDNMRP

B1: PDCUBPC: chimeric PDGF-C carrying the CUB domain from PDGF-D and the hinge region and growth factor domain of PDGF-C (protein)
chain: RDTSATPQSASIKALRNANLRRDESNHLTDLYRRDETIQVKGNGYVQSPRFPNSYPRNLLLTWRLHSQENTRIQLVFDNQFGLEEAENDICRYDFVEVEDISETSTIIRGRWCGHKEVPPRIKSRTNQIKITFKSDDYFVAKPGFKIYYSLLEDQFTEAVSPSVLPPSALPLDLLNNAITAFSTLEDLIRYLEPERWQLDLEDLYRPTWQLLGKAFVFGRKSRVVDLNLLTEEVRLYSCTPRNFSVSIREELKRTDTIFWPGCLLVKRCGGNCACCLHNCNECQCVPSKVTKKYHEVLQLRPKTGVRGLHKSLTDVALEHHEECDCVCRGSTGG
With B1 as the molecule, how does the “cleavage of the PDGF-CC form by coexpressed tPA” value (tPA) read?
Its value is “neither chimeric PDCUBPC, nor the truncation mutants lacking the CUB domain, were efficiently cleaved”.

B2: α2-anti-plasmin: specific plasmin inhibitor (#4030, American Diagnostica Inc.) (protein, UniProt P08697 40-491, looked up)
Alpha-2-antiplasmin: NQEQVSPLTLLKLGNQEPGGQTALKSPPGVCSRDPTPEQTHRLARAMMAFTADLFSLVAQTSTCPNLILSPLSVALALSHLALGAQNHTLQRLQQVLHAGSGPCLPHLLSRLCQDLGPGAFRLAARMYLQKGFPIKEDFLEQSEQLFGAKPVSLTGKQEDDLANINQWVKEATEGKIQEFLSGLPEDTVLLLLNAIHFQGFWRNKFDPSLTQRDSFHLDEQFTVPVEMMQARTYPLRWFLLEQPEIQVAHFPFKNNMSFVVLVPTHFEWNVSQVLANLSWDTLHPPLVWERPTKVRLPKLYLKHQMDLVATLSQLGLQELFQAPDLRGISEQSLVVSGVQHQSTLELSEVGVEAAAATSIAMSRMSLSSFSVNRPFLFFIFEDTTGLPLFVGSVRNPNPSAPRELKEQQDSPGNKDFLQSLKGFPRGDKLFGPDLKLVPPMEEDYPQFGSPK
B2 was tested. Which “effect on release of core PDGF-C by tPA” value (latent PDGF-CC) did it give?
The value was “had no effect on the release of core PDGF-C by tPA”.
